Assay [1] addresses Nucleosome Assembly Protein 1 (Nap1) (UniProt P25293). Description: FRET or BRET.
For assay [2], the target named is H2A–H2B dimer (Xenopus laevis) (UniProt P06897). The assay can be described thus: FRET or BRET.

Experimental findings from paper PMC2880918 are described below.

“(H3K56ac-H4)2 tetramer (from UniProt P62799 1-103) (complex)” came in with a Kd in assay [1] of 0.011 µM. That is a double-digit nanomolar value.
“tetrasome with the fluorescent label on H4 (from UniProt P62799 1-103) (complex)” showed a Kd in assay [2] of 0.035 µM.
